Results on one substance are retold here after PMC3954636.

This test addresses hemagglutinin (HA) of human H7N9 influenza A virus A/Shanghai/2/2013 (influenza A virus A/Shanghai/2/2013 (H7N9)). Put plainly: crystal structure.

“hemagglutinin (HA) of human H7N9 influenza A virus A/Shanghai/2/2013 (natural protein)” yielded a stoichiometry N of 3.

A word on the stoichiometry N: it is the number of molecules, sites or subunits per partner or assembly.
